Experimental data reported in the supplement of paper PMC9170038.

Experiments:
MS2 coat protein [1] = test: apparent KD of MS2 coat protein, switch ON state; designed switch direction (-1 OFF switch, 1 ON switch): -1; higher = weaker reporter binding; settings: FMN input: 0 or 200 uM; Eterna round: R93 (includes R88 designs)
In short: (§1)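 Apparent KD per design is the median of normalised cluster binding-curve fits. Designed RNA switches transcribed on-chip from Illumina sequencing clusters were titrated with SNAP-549-labelled MS2 coat protein in twofold steps from 0.7 or 1.5 nM to 3 µM, with 0.8–1.5 h down to 10–20 min per step. Buffer: 100 mM Tris-HCl pH 7.5, 80 mM KCl, 4 mM MgCl2, without or with constant ligand.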

MS2 coat protein [2] = test: apparent KD of MS2 coat protein, switch OFF state (with FMN for OFF switches, without FMN for ON switches); designed switch direction (-1 OFF switch, 1 ON switch): -1; higher = weaker reporter binding; settings: FMN input: 0 or 200 uM; Eterna round: R93 (includes R88 designs)
In short: as §1

Row | Sequence | apparent KD of MS2 coat protein (MS2 coat protein [1]) | apparent KD of MS2 coat protein (MS2 coat protein [2])
1 | AACAGUACAGGAUAUACAUGAGGAUCACCCAUGUGGGAAUUAAGUGGCGUACCACAAAGUAGAAGGGUACUGGA [Moding Maslow revisited (73)] | 72.5 nM | 172 nM
2 | AACAUGUUAGGAUAUCUAAGAAAAGAAAAGAAAGAAAAGAAAGAGAAGGAACAUGAGGAUCACCCAUGUAAGAA [EteRNA is fun!] | 30.1 nM | 22.1 nM
3 | AACAUGUUAGGAUAUUGAAGAAAAGAAAAGAAAGAAAAGAACAAGAAGGAACAUGAGGAUCACCCAUGUAAGAA [EteRNA is fun!] | 25 nM | 17.2 nM
4 | AACGAACAUGAGGAUCACCCAUGUCAGGAUAUGCGAAGAACGAUCGAACAAACGAUAAGCAGAAGGGACAGAGA [Amethyst 98] | 25.1 nM | 50 nM
5 | AACGAGUCAGGAUAUACAAAAAGUAAAUAAGUAAAACCAAAGUAGAAGGGACAUGAGGAUCACCCAUGUAAAUA [JR_Exc004_Sub019] | 42.8 nM | 24.4 nM
6 | AACUGACAUGAGGAUCACCCAUGUCAGGAUAUGACAUCGAAAAAAAAAAAAAUCGUUGUCAGAAGGGACAUGGA [Design 74: Sub-opt R] | 20.9 nM | 32.5 nM
7 | AACUGACAUGAGGAUCACCCAUGUCAGGAUAUGCUUCUAGGAAAAAAAAAAACUAGAUGCAGAAGGGAUAUGGA [Design 37 :P Sub-opt 13] | 14.5 nM | 12.1 nM
8 | AAGAAACAUGAGGAUCACCCAUGUAAGGAUAUGAAAAAGAAAAGAAAAGAAAGAAGAAUCAGAAGGUACAAAGG [Nakhtnebtepnefer Intef III] | 24.1 nM | 26.1 nM
9 | AAGAAACAUGAGGAUCACCCAUGUCAGGAUAUGCAGGACUGACGAAAGUCAGUCCAAAGCAGAAGGGACUAGAA [8-pair stack] | 29.9 nM | 56.5 nM
10 | AAGAAACAUGAGGAUCACCCAUGUCAGGAUAUGUAAAAGAAAAGAAAAGAAAGAAGAAACAGAAGGGACAAAGG [Neferkaure] | 83.9 nM | 126 nM
11 | AAGAAAGCAGGAUAUACAUGAGGAUCACCCAUGUAAAAGAAAGAAAAGGGAAAGAAAAGUAGAAGGGCUAAGAA [User/Heqamaatre-setpenamun Ramesses IV] | 27.2 nM | 74.1 nM
12 | AAGAAAGCAGGAUAUACAUGAGGAUCACCCAUGUAAAAGAAAGAGGGAAAAGAGAAAAGUAGAAGGGCUAAGAA [Cleopatra IV] | 37.3 nM | 33.8 nM
13 | AAGAAAGGAGGAUAUACAUGAGGAUCACCCAUGUAAAAGAAAGAAGGGAAAGAGAAAAGUAGAAGGCCUAAGAA [Wahibre Psamtik I] | 32.7 nM | 31 nM
14 | AAGAAAGUAGGAUAUACAAGGAAGAAAGAAAAGAAAAGAAAACAUGAGGAUCACCCAUGUAGAAGGACUUAGAA [EteRNA is fun!] | 27.5 nM | 18.7 nM
15 | AAGAACCAAGGAUAUACAUGAGGAUCACCCAUGUAAAAGAAAGAAAGGGAAAAGAAAAGUAGAAGGUGGAAGAA [Takelot I] | 28.1 nM | 32.8 nM
16 | AAGAACGCAGGAUAUACAUGAAAGAAAGAAAAGAAAAGAAAACAUGAGGAUCACCCAUGUAGAAGGGCGAAGAA [EteRNA is fun!] | 37.9 nM | 39.6 nM
17 | AAGAACUGAGGAUAUACAAAAGAAAAGAAAAGAAAGAAAGAACAUGAGGAUCACCCAUGUAGAAGGCGGAAGAA [Khahotepre Sobekhotep VI] | 31.5 nM | 14.7 nM
18 | AAGAACUGAGGAUAUACAUAAUAAAAGAAAAGAAACAAAGAACAUGAGGAUCACCCAUGUAGAAGGCGGAAGAA [Menwadjre Sihathor] | 29.4 nM | 20.7 nM
19 | AAGAAGACAGGAUAUACAUGAGGAUCACCCAUGUAAAAGAAAGAAAAGGGAAAGAAAAGUAGAAGGGUCAAGAA [Menkheperure Thutmose IV] | 39.6 nM | 36.8 nM
